This note sets out measurements from US11547673.

Test [1] deals with human ACE2 peptidase domain (amino acids 1-615 of human ACE2 with C-terminal His-10 and Avi tags) (human) (UniProt Q9BYF1).
The target is the same in test [2]. Nature of the test: biolayer interferometry; the reference KD of monomeric RBD is a literature value.

Chain of UniProt Q9BYF1 (Q9BYF1 18-615 limits assumed): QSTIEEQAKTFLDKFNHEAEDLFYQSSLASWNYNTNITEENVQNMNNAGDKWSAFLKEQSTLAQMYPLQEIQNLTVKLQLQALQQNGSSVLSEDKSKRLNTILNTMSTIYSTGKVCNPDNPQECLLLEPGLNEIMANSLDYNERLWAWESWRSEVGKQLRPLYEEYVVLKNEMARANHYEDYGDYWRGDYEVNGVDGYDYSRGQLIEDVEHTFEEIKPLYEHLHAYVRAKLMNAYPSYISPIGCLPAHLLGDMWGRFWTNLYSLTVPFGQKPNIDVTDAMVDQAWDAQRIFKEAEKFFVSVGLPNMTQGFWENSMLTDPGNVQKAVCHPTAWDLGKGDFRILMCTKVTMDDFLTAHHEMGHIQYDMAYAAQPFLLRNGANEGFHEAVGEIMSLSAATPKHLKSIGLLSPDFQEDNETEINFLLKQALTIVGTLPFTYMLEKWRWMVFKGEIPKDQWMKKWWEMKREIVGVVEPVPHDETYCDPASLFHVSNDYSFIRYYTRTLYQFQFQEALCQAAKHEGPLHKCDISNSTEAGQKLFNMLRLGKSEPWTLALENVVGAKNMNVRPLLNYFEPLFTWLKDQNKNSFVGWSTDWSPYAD

As to “trimerised SARS-CoV-2 S receptor-binding domain fused to the T4 fibritin foldon trimerisation domain (ligand; other documents disagree on this pair)”, the Kd – broadly, a measure of binding affinity in units of concentration – in test [1] came out at 5 pM. This substance also yielded a fold of the reported KD of monomeric RBD in test [2] of 1000 fold.
